For 21 sequences, protein production results are on record in a protein production outcome set (Wang et al. 2014).
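Further: failed if final PepcDB status was selected cloned or expressed and not failed if soluble or beyond.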

A short description of this series: label from the status in PepcDB records.
Turning to “MDYTASYYTDEELAKLFKAAKGDPLELPIVLAAYYGLRRSEIIGLRWDAIDFNPDDPKITIQFTVTEVNFGDGQGNVIIEKEGTKSKASKRTLPLVKPIADLLLQKKKDIENNRRLCGSCYNDKYLDFVHVNEIGERMKPNYISQHFALLLEKHGLKKIRFHDLRHSCASLLYANGVSLKQIQEWLGHSDISTTANIYTHLDYNSKIATANAILPVLFDQLEHHHHHH”, the protein production entry is given as “failed”. The result for “MEAEVWEAEGYNLVLDSDLYDADGYDVPDPGLLTEKNELTFTEPSQVLPFLTSSQQWQSLTPRARARRLWLLLRTSLHEVVEKEKRAELRAARLTHGLEPLRRLEVAAGLRSVAQDPVGGRFVVLDGAGRLHLHKEDGWAQETLLAPVRLTGLVTVLGPLGAVGRFVGWGPAGLAILRPNLSLLWLSEQGVGRAPGWAPTCCLPVPDLRLLLVAEMNSSLALWQFRSGGRRLVLRGSALHPPPSPTGRLMRLAVAPVPPHHVLRCFAAYGSAVLTFDLHAWTLVDVRRDLHKTTISDLAYCEEVEAMVTASRDSTVKVWEADWQIRMVFVGHTGPVTAMTVLPNTTLVLSASQDGTLRTWDLQAAAQVGEVALGFWGQDKLSRRVGRLLAPVRPGWPVLSLCASSMQLWRVRELYSPLAQLPAKVLHVQVAPALPAPAHQSLPTRLVCACADGSVYLLSAATGRIVSSLLLEPEDCAAAVAYCLPREALWLLTRAGHLVRANAARCPMSVLHRVCPPPPPAPQPCCLHLYSHLTDLGGAFSSWEIVRQHWGELRCSSVACAWKNKNRYLPVVGHTDGTLSVLEWLSSKTVFQTEAHSPGPVVAIASTWNSIVSSGGDLTVKMWRVFPYAEESLSLLRTFSCCYPAVALCALGRRVTAGFEDPDSATYGLVQFGLGDSPRLDHRPQDDPTDHITGLCCCPTLKLYACSSLDCTVRIWTAENRLLRLLQLNGAPQALAFCSNSGDLVLALGSRLCLVSHRLYLPTSYLVKKMCRKAPDVVDDPPLPLMSQESLTSAQLQRLTNLHGAASLRSHAGLLSPPGGPPFPLWVGAWRCGALWS” reads “failed”; that for “MEAKLQVGVLGFGTVGSGVIHILEEHQEKISQVTGYHISVKKVLVRDLEKNRRYETKGFELTTNPSDVLDDPEIAVVVEVMGSITTAREYILQALKAGKHVVTANKDLIALHGDELVAVAQANNCDLFYEASVAGGIPILRTIVNSLAADKIQKVMGIVNGTTNFMLTKMTTEKKSYEEVLAEAQALGFAESDPTNDVDGIDAARKMVIMTRLAFGMNVNLDNVETSGIRGISPEDIEVAYQLGYKIKLVGTAEETNGTVNVNVGPVLLPKAHPLAGVNYENNAVFVTGAAVGETMFYGPGAGELPTATSVVSDLITVAKNSRLGTNGNAFNSYKHETKHTPKEQVFSKYYLRLTMDDKTGTFLKLTQIFAEAGVGFDKILQQPYDDFTATVVIVTHSTSQAQLEQAITRVKNEPEMQMLAKYSVVEG”, “not failed”. The result for “MEALKIALLGGGTVGSAFYNLVLERAEELSAFGVVPRFLGVLVRDPRKPRAIPQELLRAEPFDLLEADLVVEAMGGVEAPLRLVLPALEAGIPLITANKALLAEAWESLRPFAEEGLIYHEASVMAGTPALSFLETLRGSELLELHGILNGTTLYILQEMEKGRTYAEALLEAQRLGYAEADPTLDVEGIDAAHKLTLLARLLVDPGFPFAEVEAQGIARLTPEVLQKAEARGERVRLVASLFGEGGRWRAAVAPRRLPQDHPLARARGNALWVRARPLGEAFVTGPGAGGGATASGLFADLLRFLSGAPGHLPAPRARPPLEEGSPWPGVE” reads “failed”; that for “MEALRLGFSPCPNDTFIFYALVHGRVESPVPLEPVLEDVETLNRWALEGRLPLTKLSYAAYAQVRDRYVALRSGGALGRGVGPLVVARGPLQALEGLRVAVPGRHTTAYFLLSLYAQGFVPVEVRYDRILPMVAQGEVEAGLIIHESRFTYPRYGLVQVVDLGAWWEERTGLPLPLGAILARRDLGEGLIRALDEAVRRSVAYALAHPEEALDYMRAHAQELSDEVIWAHVHTYVNAFSLDVGEEGERAVARLFAEAEARGLAAPSPRPLFV”, “not failed”; that for “MEATKERMEKDQKKRVVTNEAGKAEDNTIRTIIRESIVEDRGSNDDDGNKDNDHGASKPEDILAFSRTVRKIDSSLE”, “failed”. Under “MECGVFHTPYMRPGRKDKDTFEYSLLLAAACDKFGYRDFMVGEHGMQAWENIPNPELLIVAAAQITERMRFAPMAHIVPLHNPSTLAIQIGYTSQLLEDRYFLGVGAGSWENEAVLRGQPGDLSEAHPRLMEGLEVMDKVWRQEPFDFEGKYYKAARLDGQIDPGSVASHGEFKVKDGEEYHLTADHSPHGGADGLEIAVTGLSKNSPSHRLAGERGWTPISFYGGSALLRSQWDTYSEAVRSIGGTPQGSRFKIARDVFVAKTDEEAKEKAKNGALGLAWQKYLMPVYQKYRILQGFIDDADHKVDIDDVDLDYLADNVWLCGSPDTVIEKIEKTFDLAGFRYGQLAVNTHDAMDDPEPWIESLRLFATEVVPNVPVEGTHETVAVG” stands “failed”. In the case of “MEDEIKSFAKDRKLIIEDSKNSKNNIVEVQKAIETLKDEKNAKNVVVDFTEYNPLHNGHKYCMDFGKREGLFISVIPGPLERSGRGIPYLVNRYIRSEMALLAGADLVVEGPPMGIMGSGQYMQCLIKIFSALNGDIIPRGYIEEETMEKVINSINNKNHIKIKPYNISCIETGEKFGEKLEIDNYVIASMSYTIYKLKENFPEWKPKFKFIERIEGISGTKIREGVFNNNFESIKHMLPETTLNVFKSFENNLSEIILKRNEQMVLDTVNNFDLSKYLPENISEKLNEKEYYKSIEEIKECIPRGFSKNNIERTISKLEARIEKETISKYIENYPANLKILKGINNNE”, the protein production entry is “failed”.

With “MEDFWVQYGDEMLPVIGDFPRKGDYLPSFMLVDDQKHDAALESFSHTPKLIVTLLSVDEDEHAGLLLLRETRRFLDSWPHLKLIVITVDSPSSLARARHEHGLPNIALLSTLRGRDFHKRYGVLITEYPLSGYTSPAIILADAANVVHYSERLANTRDFFDFDAIEKLLQEGEQQAMAAEREAAEARQEQDAEREKGTERLLEKAKLIQDQLNRNGDPGR”, the protein production result is “not failed”. The result for “MEDKFANLSLHEKTGKSSIQLNEQTGSDNGSAVKRTSSTSSHYNNINADLHARVKAFQEQRALKRSASVGSNQSEQDKGSSQSPKHIQQIVNKPLPPLPVAGSSKVSQRMSSQVVQASSKSTLKNVLDNQETQNITDVNINIDTTKITATTIGVNTGLPATDITPSVSNTASATHKAQLLNPNRRAPRRPLSTQHPTRPNVAPHKAPAIINTPKQSLSARRAVKLPPGGMSLKMPTKTAQQPQQFAPSPSNKKHIETLSNSKVVEGKRSNPGSLINGVQSTSTSSSTEGPHDTVGTTPRTGNSNNSSNSGSSGGGGLFANFSKYVDIKSGSLNFAGKLSLSSKGIDFSNGSSSRITLDELEFLDELGHGNYGNVSKVLHKPTNVIMATKEVRLELDEAKFRQILMELEVLHKCNSPYIVDFYGAFFIEGAVYMCMEYMDGGSLDKIYDESSEIGGIDEPQLAFIANAVIHGLKELKEQHNIIHRDVKPTNILCSANQGTVKLCDFGVSGNLVASLAKTNIGCQSYMAPERIKSLNPDRATYTVQSDIWSLGLSILEMALGRYPYPPETYDNIFSQLSAIVDGPPPRLPSDKFSSDAQDFVSLCLQKIPERRPTYAALTEHPWLVKYRNQDVHMSEYITERLERRNKILRERGENGLSKNVPALHMGGL” reads “failed”; that for “MEDKPLGILRVHVKRGINLAIRDATTSDPYVVITLANQKLKTRVINNNCNPVWNEQLTLSIKDVNDPIRLTVFDKDRFSGDDKMGDAEIDFRPFLEAHQMELDFQKLPNGCAIKRIRPGRTNCLAEESSITWSNGKIMQEMILRLKNVECGEVELMLEWTDGPGCKGLGREGSKKTPWMPTKRLD”, “failed”; that for “MEDLERRQRSQVKTHEVQAHGRISRLIPAEDFGIIETPEGREIYFHRHSVVNSDFDRLTVGTAVRFAEEMGEEGPQASSVRVEGKHHLIGLEHHHHHH”, “not failed”. The result for “MEDQGVLAGFFALSFAFILVILIWAIISYLLTAFALYSMAKNDGATDGVLAFIPFLNSKTWGDLAKDKLPDFLKEEAGWKVFGIYVACFIFNFVPIISLLATAVSIVLSIYLIYAILDRYGTNSILFTIIHVITFSVFLPIHLFIIRNEPVRYKE” reads “failed”; that for “MEDVKGKEIIDDAPIDNKVSDEMESEENAIKKKYGGLLPKKIPLISKDHERAFFDSADWALGKQKGQKPKGPLEALRPKLQPTPQQQPRARRMAYSSGETEDTEIDNNEAPDDQACASAVDSTNLKDDGGAKDNIKS”, “failed”; that for “MEEELQHSHCVNCVSRRCMTRPEPGISCDLIGCPLVCGAVFHSCKADEHRLLCPFERVPCLNSDFGCPFTMARNKVAEHLEMCPASV”, “not failed”.

For “MEEEMKKKVSRGELGGEAQNCPRCESPNTKFCYYNNYSLSQPRYFCKSCRRYWTKGGTLRNVPVGGGCRRNKRSSSSAFSKNNNNKSINFHTDPLQNPLITGMPPSSFGYDHSIDLNLAFATLQKHHLSSQATTPSFGFGGDLSIYGNSTNDVGIFGGQNGTYNNSLCYGFMSGNGNNNQNEIKMASTLGMSLEGNERKQENVNNNNNNSENPSKVFWGFPWQMTGDSAGVVPEIDPGRESWNGMVSSWNNGLLNTPLV”, the protein production result is “not failed”. Under “MEEGGDFDNYYGADNQSECEYTDWKSSGALIPAIYMLVFLLGTTGNGLVLWTVFRSSREKRRSADIFIASLAVADLTFVVTLPLWATYTYRDYDWPFGTFFCKLSSYLIFVNMYASVFCLTGLSFDRYLAIVRPVANARLRLRVSGAVATAVLWVLAALLAMPVMVLRTTGDLENTTKVQCYMDYSMVATVSSEWAWEVGLGVSSTTVGFVVPFTIMLTCYFFIAQTIAGHFRKERIEGLRKRRRLLSIIVVLVVTFALCWMPYHLVKTLYMLGSLLHWPCDFDLFLMNIFPYCTCISYVNSCLNPFLYAFFDPRFRQACTSMLCCGQSRCAGTSHSSSGEKSASYSSGHSQGPGPNMGKGGEQMHEKSIPYSQETLVVD” stands “not failed”; under “MEEINKYIQNSSETGGEIYNLIEELFPICRSITGNGVRKTMDIIRKHIPLEIHEVKSGTKVFDWTVPKEWNIKDAYVRNSKGEKVIDFKENNLHVMSYSVPVHKTMTLDELKPYLHTIPGNKDRIPYLTSYYKENWGFSLTQNKFDELCDDDYEVVIDSSLEDGSLTYGEYYIRGELEEEILLTTYTCHPSMCNDNLSGVALITFIAKALSKLKTKYSYRFLFAPETIGSITWLSRNEDKLKNIKMGLVATCVGDAGIKNYKRTKFGDAEIDKIVEKVLMHCGSEYYVADFFPWGSDERQFSSPGINLSVGSLMRSCYGFDGYHTSADNLCYMNKDGLADSYKTYLEVIYTIENNRTYLNLNPKCEPQLGKRGIYRMIGGGSDYPFDEFAMFWVLNMSDGKNSLLDIAYKSGMEFRRIKYAADALYRVELLKLV”, “not failed”.

As to “MEEITEGVNNMNLAVDTQKKNRIQVSNTKKPLFFYVNLAKRYMQQYTDVELSALGMAIATVVTVAEILKNNGFAVEKKIMTSTVDIKDDSRGRPVQKAKIEITLAKSEKFDELMAAANEEKEAAEAQEQN”, the protein production result is on record as “failed”. In the case of “MEEKKIVELEKQVEDYRQFGFVLLSLSIFLFIGLVLPPSYAPQVAAEWLIAGIGGALTFAWLFNRKVVQCQQKLFEEEDQQ”, the protein production entry is recorded as “failed”.

Take “MEEKKSSGMFAVFAALGANVLVAISKFIGFGLSGSAAMLNESIHSVVDCGNQILLLFGDRRSRQASTNLHQFGEARAKYFFSMIVATFLFFGGGVIGVMEAYDKLVHPAHSVENAGIVIGILLIGMAIEGSSLRVAFKEISELNTEKLPIFKFLHESRHSEILVIFAEDLCAIIGLLLALLGTVLTMVTGNPIFDAISGLLIGFLLMAAAIFLTREFYSLIVGERVTDSDLEKILTAFDRPEVERVINVKTVHLGPTEILIAAKIDLVSKLVLEDYEIINQIEAEIRKKISDKKCYIYIEIDEFVQGYVQSSDL”: the protein production result was “failed”.
